Our source for the Kd values is paper PMC10126545.

The target of experiment [1] is COBRA P1 HA wild type, CHO expressed, for binding assays. Briefly: BLI; Octet RED384; HA loaded on anti-Penta-His biosensors (10 μg/mL), Fab 1F8 15 nM to 0.556 nM in solution; PBS, 1% BSA, 0.05% Tween 20; 30 °C; 1:1 model with mass transport limitation; mean of two independent experiments. On the technique in general: In BLI a coated tip is dipped into the sample, and binding shifts an interference pattern.

Experiment [2] has as its target COBRA P1 HA N127D mutant, CHO expressed, for binding assays. The description is as above.

B1: Fab 1F8 (recombinant Fab of the P1-elicited mouse monoclonal antibody 1F8) (Fab, V domains shown)
VH: QVQLQQSGAELMKPGASVKISCKATGYTFSSYWIEWVKQRPGHGLEWIGEILPGSGRTNYDERFKGKATFTADTSSNTAYMQLSSLTSEDSAVYYCARPRIYGMDYWGQGTSVTVSS
VL: DIVLTQSPASLAVSLGQRATISCKASQSVDFDGDTYMSWYQQKPGQPPKLLIYAASKLESGIPARFSGSGSGTDFTLNIHPVEEEDAATYFCQQSNEDPWTFGGGTKLEIK
The Kd is the concentration at which binding is half-saturated. A higher Kd goes with weaker binding. Take B1: the Kd is 2.95 nM in experiment [1] and 0.86 nM in experiment [2].
